Biological target: T1, recombinant soluble human HLA-G β2M MHC class I complex, monomer (human)
T1 construct: His tagged; biotinylated where coated on streptavidin plates, non-biotinylated in SPR; also called HLA-G-0003; wt HLA-G (monomer)
Experiment: competition ELISA, antibody 44 nM; competitor coated ILT4-Fc
Description: The ELISA was set up by coating the Fc tagged ILT2 and ILT4 respectively to Maxisorp microtiter plates. After incubation and washing steps, the respective antibodies were added at a concentration of 100 nM. Soluble His tagged monomeric, dimeric or trimeric HLA-G was added to the wells. After incubation and washing steps, detection of bound receptor was carried out by anti-His-antibody-POD conjugates.
The above tables summarize the blocking of interaction between rec. HLA-G proteins (monomer and oligomers) to its receptors ILT2 and ILT4 by the described HLAG antibodies at a concentration of 110 nM (*HLAG-0090 was tested at a concentration of 44 nM) as assessed by ELISA. Shown are the % inhibitions of the HLA-G/receptor interaction (for ILT2 and ILT4). The less pronounced ILT4 inhibition depends on the major β2M dependent interaction of this receptor.

B1: HLA-G-0090 (antibody, V domains shown)
VH: QVQLQQSGPGLLKPSQTLSLTCAISGDSVSSNRAAWNWIRQSPSRGLEWLGRTYYRSKWYNDYAVSVQGRITLIPDTSKNQFSLRLNSVTPEDTAVYYCASVRAVAPFDYWGQGVLVTVSS
VL: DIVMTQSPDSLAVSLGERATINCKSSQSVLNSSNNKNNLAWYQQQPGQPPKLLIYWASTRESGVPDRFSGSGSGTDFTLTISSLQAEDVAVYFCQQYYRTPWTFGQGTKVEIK
notes: Human antibody from humanized OmniRat (OMT) rats
% inhibition of ILT4 binding: 31%

— patent publication US20250051455A1 (Hoffmann-La Roche, published 2025)
